Paper PMC12069617

Assays:
Assay in all cases: SEC-MALS
[1] = target: PR-B (progesterone receptor isoform B);SRC3 (steroid receptor coactivator 3);p300 (human?;human?;human?, UniProt P06401;Q9Y6Q9;Q09472 1-933;1-1424;1-2414, ||)
[2] = target: PR-B (progesterone receptor isoform B);SRC3 (steroid receptor coactivator 3) (human?;human?, UniProt P06401;Q9Y6Q9 1-933;1-1424, |)
[3] = target: PR-B (progesterone receptor isoform B) (UniProt P06401 1-933)
[4] = target: PR-A (progesterone receptor isoform A) (UniProt P06401 165-933)
[5] = target: PR-A (progesterone receptor isoform A);SRC3 (steroid receptor coactivator 3);p300 (human?;human?;human?, UniProt P06401;Q9Y6Q9;Q09472 165-933;1-1424;1-2414, ||)
[6] = target: PR-A (progesterone receptor isoform A);SRC3 (steroid receptor coactivator 3) (human?;human?, UniProt P06401;Q9Y6Q9 165-933;1-1424, |)

Measured: binding result

PR-B (progesterone receptor isoform B);SRC3 (steroid receptor coactivator 3), sequence (P06401 whole entry, chain 1 of 2, canonical isoform): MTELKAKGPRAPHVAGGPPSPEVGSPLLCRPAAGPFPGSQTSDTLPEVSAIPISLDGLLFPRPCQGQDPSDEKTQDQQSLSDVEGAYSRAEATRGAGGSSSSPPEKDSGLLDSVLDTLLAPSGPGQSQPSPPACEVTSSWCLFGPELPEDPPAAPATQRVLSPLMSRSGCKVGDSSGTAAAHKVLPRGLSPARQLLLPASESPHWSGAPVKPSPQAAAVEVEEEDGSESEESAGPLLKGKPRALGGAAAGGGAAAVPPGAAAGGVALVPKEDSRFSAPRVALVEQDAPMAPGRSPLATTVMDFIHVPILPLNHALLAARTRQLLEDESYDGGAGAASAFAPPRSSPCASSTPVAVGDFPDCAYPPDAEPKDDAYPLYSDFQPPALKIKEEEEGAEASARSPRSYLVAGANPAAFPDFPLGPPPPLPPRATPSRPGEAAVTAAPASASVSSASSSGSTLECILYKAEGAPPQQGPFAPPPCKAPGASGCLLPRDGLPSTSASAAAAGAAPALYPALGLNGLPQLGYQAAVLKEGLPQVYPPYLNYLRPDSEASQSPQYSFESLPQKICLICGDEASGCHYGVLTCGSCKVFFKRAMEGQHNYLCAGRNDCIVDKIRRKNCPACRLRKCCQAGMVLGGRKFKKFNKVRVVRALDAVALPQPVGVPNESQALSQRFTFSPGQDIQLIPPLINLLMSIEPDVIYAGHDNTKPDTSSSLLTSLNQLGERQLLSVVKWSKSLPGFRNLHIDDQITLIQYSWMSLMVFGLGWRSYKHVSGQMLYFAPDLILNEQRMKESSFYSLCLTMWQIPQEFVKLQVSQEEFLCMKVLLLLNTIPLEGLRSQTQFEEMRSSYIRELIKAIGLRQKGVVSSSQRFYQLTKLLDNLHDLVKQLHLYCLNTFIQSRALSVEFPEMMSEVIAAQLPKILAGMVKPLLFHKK
PR-B (progesterone receptor isoform B);SRC3 (steroid receptor coactivator 3), sequence (Q9Y6Q9 whole entry, chain 2 of 2, canonical isoform): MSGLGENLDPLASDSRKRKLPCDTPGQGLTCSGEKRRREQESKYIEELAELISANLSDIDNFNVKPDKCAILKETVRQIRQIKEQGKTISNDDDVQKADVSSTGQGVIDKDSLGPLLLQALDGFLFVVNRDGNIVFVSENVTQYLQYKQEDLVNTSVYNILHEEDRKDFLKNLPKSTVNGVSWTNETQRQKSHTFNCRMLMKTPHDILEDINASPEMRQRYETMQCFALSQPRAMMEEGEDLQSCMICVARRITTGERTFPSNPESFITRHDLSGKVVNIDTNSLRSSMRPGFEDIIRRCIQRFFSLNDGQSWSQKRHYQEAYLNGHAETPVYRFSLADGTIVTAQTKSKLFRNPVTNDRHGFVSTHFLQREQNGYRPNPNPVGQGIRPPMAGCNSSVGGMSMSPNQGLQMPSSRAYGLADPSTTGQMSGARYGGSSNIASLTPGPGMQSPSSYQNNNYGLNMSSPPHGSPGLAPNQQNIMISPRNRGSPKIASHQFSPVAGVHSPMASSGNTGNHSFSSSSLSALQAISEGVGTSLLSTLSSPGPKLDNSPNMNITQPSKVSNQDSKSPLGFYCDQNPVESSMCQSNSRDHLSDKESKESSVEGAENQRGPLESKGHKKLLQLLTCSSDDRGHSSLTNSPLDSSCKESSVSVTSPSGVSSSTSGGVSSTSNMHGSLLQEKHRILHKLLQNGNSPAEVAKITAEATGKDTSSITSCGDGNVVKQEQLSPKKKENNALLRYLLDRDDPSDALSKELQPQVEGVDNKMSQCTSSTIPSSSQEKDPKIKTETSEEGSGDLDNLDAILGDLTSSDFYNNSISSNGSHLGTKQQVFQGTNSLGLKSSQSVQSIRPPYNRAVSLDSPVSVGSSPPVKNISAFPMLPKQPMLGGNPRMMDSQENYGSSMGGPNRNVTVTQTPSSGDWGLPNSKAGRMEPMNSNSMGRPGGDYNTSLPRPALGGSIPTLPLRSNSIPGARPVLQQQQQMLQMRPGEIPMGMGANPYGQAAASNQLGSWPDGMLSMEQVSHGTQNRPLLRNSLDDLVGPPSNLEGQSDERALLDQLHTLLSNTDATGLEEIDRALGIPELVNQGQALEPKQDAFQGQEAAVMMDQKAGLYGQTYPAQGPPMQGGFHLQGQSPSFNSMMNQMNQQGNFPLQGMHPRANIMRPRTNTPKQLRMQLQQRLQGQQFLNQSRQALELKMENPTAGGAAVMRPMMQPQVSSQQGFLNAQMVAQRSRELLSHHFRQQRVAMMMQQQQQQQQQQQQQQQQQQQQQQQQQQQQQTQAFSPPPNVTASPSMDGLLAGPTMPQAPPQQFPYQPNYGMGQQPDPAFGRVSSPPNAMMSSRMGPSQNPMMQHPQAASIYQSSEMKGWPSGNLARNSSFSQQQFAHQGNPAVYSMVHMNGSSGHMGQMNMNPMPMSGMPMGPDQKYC
PR-B (progesterone receptor isoform B), sequence (P06401 whole entry, canonical isoform): as the sequence (P06401 whole entry, chain 1 of 2, canonical isoform) above
PR-B (progesterone receptor isoform B);SRC3 (steroid receptor coactivator 3);p300, sequence (P06401 whole entry, chain 1 of 3, canonical isoform): as the sequence (P06401 whole entry, chain 1 of 2, canonical isoform) above
PR-B (progesterone receptor isoform B);SRC3 (steroid receptor coactivator 3);p300, sequence (Q9Y6Q9 whole entry, chain 2 of 3, canonical isoform): as the sequence (Q9Y6Q9 whole entry, chain 2 of 2, canonical isoform) above
PR-B (progesterone receptor isoform B);SRC3 (steroid receptor coactivator 3);p300, sequence (Q09472 whole entry, chain 3 of 3, canonical isoform): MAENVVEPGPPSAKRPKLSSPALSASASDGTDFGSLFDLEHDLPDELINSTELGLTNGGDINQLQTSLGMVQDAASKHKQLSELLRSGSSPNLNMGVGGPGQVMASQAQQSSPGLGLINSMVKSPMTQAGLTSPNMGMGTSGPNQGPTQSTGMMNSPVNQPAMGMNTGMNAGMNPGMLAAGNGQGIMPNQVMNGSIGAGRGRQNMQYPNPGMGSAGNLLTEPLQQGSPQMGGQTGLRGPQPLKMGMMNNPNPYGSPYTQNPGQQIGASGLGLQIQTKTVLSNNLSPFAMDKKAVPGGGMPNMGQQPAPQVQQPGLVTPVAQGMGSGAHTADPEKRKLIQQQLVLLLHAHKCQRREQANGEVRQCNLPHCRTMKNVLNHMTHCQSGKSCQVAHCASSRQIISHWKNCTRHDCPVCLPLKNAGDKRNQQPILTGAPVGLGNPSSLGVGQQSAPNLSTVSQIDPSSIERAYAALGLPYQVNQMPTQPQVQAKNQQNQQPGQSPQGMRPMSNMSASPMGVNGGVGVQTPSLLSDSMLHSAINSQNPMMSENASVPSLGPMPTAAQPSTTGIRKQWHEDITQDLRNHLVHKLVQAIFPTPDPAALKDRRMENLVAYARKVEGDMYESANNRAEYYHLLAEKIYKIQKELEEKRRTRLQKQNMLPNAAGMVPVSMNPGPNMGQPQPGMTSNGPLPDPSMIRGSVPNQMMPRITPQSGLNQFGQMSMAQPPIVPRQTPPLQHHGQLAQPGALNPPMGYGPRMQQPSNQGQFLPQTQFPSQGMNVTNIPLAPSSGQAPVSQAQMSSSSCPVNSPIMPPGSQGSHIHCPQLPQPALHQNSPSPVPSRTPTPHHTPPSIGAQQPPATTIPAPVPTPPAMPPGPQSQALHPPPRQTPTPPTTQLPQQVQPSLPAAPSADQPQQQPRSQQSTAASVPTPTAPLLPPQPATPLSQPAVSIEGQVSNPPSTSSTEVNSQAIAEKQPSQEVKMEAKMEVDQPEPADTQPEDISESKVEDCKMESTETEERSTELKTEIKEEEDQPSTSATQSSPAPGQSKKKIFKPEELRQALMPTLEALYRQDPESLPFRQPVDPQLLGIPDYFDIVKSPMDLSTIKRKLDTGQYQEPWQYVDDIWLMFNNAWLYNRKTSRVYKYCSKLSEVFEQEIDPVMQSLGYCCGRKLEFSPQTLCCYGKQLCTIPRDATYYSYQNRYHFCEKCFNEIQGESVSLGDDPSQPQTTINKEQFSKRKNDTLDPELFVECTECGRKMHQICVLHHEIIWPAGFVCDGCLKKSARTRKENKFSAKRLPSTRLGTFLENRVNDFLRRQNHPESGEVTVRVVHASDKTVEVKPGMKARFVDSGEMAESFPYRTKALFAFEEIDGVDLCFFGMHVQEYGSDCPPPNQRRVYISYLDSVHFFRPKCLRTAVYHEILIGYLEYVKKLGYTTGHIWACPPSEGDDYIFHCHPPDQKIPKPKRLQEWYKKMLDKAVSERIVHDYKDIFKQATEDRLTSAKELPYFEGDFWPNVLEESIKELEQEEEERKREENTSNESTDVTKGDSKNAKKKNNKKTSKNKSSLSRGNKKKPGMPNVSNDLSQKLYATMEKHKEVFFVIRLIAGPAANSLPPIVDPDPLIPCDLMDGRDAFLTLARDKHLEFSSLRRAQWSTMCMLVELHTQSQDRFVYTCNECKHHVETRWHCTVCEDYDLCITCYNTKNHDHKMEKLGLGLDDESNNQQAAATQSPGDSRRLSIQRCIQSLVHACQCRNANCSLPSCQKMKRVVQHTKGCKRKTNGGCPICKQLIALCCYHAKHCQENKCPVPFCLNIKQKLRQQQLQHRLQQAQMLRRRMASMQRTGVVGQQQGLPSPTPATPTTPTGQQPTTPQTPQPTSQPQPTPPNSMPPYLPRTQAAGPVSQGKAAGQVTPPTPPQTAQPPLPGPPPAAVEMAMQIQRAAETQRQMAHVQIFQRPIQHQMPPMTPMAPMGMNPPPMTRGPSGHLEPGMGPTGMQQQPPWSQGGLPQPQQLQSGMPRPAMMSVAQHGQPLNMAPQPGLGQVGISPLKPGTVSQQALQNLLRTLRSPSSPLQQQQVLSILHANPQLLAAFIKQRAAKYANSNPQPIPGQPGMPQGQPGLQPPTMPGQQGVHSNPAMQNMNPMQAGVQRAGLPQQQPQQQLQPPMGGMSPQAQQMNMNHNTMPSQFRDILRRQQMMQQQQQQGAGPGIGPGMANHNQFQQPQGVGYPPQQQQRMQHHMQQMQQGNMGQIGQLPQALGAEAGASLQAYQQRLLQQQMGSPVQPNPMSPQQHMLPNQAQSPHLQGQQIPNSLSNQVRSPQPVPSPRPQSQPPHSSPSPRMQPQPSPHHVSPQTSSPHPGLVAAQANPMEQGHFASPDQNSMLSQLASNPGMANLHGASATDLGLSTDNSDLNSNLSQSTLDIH

B1: 32-mer PRE (progesterone response element) (dsDNA)
DNA 1: CATCTTTGAGAACAAACTGTTCTTAAAACGAG
DNA 2: CTCGTTTTAAGAACAGTTTGTTCTCAAAGATG
binds: all assays above
